Source: US6465220B1, “Glycosylation using GalNac-T4 transferase” (GlycoZym ApS, priority 1998, dated 2002)

Columns and labels:
[1] = tested on: T1, C[C@H](NC(=O)[C@H](C)NC(=O)[C@@H](NC(=O)[C@@H](NC(=O)[C@H](CCC(=O)O)NC(=O)[C@@H]1CCCN1C(=O)[C@@H]1CCCN1C(=O)[C@H](C)NC(=O)[C@H](CO)NC(=O)[C@H](CO)NC(=O)[C@H](CO)NC(=O)[C@@H]1CCCN1C(=O)[C@@H]1CCCN1C(=O)[C@H](C)NC(=O)[C@@H]1CCCN1C(=O)[C@@H](NC(=O)[C@@H](NC(=O)[C@H](C)NC(=O)[C@H](CO)NC(=O)[C@@H]1CCCN1C(=O)[C@@H](NC(=O)[C@@H]1CCCN1C(=O)[C@@H]1CCCN1C(=O)[C@@H](N)CS)[C@@H](C)O)[C@@H](C)O)[C@@H](C)O)[C@@H](C)O)[C@@H](C)O)C(=O)O; experiment: GalNAc-transferase assay with purified recombinant GalNAc-T2; type: biochemical, human; conditions: other: acceptor substrate; pH 7.5
T1 construct: Control constructs pAcGP67-GalNAc-T1-sol, pAcGP67-GalNAc-T2-sol, pAcGP67-GalNAc-T3-sol, and pAcGP67-O^2-sol were prepared as previously described; made in house; host or cells: insect cells (baculovirus, pAcGP67)
Experimental: The following examples are provided to illustrate certain preferred embodiments of the invention, and should be considered as illustration and not as limitation. In the examples, GalNAc-transferase assays were performed in 50 μl total reaction mixtures containing 25 mM cacodylate (pH 7.5), 10 mM MnCl2, 0.1-0.25% Triton X-100, 150-200 μM UDP-[^14C]-GalNAc (4,000 cpm/nmole) (Amersham) and 0.06-1 mM acceptor peptides. Peptides were either synthesized or obtained from Carlbiotech (Copenhagen), or Neosystems (Strasbourg), and quality was ascertained by amino acid analysis and mass spectrometry. […] Products were quantified by scintillation counting after chromatography on Dowex-1, octadecyl silica cartridges (Bakerbond), or HPLC (PC3.2/3 or mRPC C2/C18 SC2.1/10 Pharmacia, Smart System). […]
Activities measured with the mucin derived substrates, Muc7, EA2, and Muc2 (see Table I for structures and SEQ ID NOs:19, 25 and 18, respectively), were only 2-7 fold over background values. […] GalNAc-T4 was expressed in High Five cells and purified to near homogeneity, however, very low endogenous activity was detected with some substrates in the same fractions when medium from cells infected with irrelevant expression constructs were used in the same purification strategy. […]

[2] = tested on: T2, C[C@H](NC(=O)[C@H](C)NC(=O)[C@@H](NC(=O)[C@@H](NC(=O)[C@H](CCC(=O)O)NC(=O)[C@@H]1CCCN1C(=O)[C@@H]1CCCN1C(=O)[C@H](C)NC(=O)[C@H](CO)NC(=O)[C@H](CO)NC(=O)[C@H](CO)NC(=O)[C@@H]1CCCN1C(=O)[C@@H]1CCCN1C(=O)[C@H](C)NC(=O)[C@@H]1CCCN1C(=O)[C@@H](NC(=O)[C@@H](NC(=O)[C@H](C)NC(=O)[C@H](CO)NC(=O)[C@@H]1CCCN1C(=O)[C@@H](NC(=O)[C@@H]1CCCN1C(=O)[C@@H]1CCCN1C(=O)[C@@H](N)CS)[C@@H](C)O)[C@@H](C)O)[C@@H](C)O)[C@@H](C)O)[C@@H](C)O)C(=O)O; experiment: GalNAc-transferase assay with purified recombinant GalNAc-T4; type: biochemical, human; conditions: other: acceptor substrate; pH 7.5
T2 construct: made in house; host or cells: High Five insect cells (baculovirus, pAcGP67 vector)
Experimental: In the examples, GalNAc-transferase assays were performed in 50 μl total reaction mixtures containing 25 mM cacodylate (pH 7.5), 10 mM MnCl2, 0.1-0.25% Triton X-100, 150-200 μM UDP-[^14C]-GalNAc (4,000 cpm/nmole) (Amersham) and 0.06-1 mM acceptor peptides. […] Products were quantified by scintillation counting after chromatography on Dowex-1, octadecyl silica cartridges (Bakerbond), or HPLC (PC3.2/3 or mRPC C2/C18 SC2.1/10 Pharmacia, Smart System).

GalNAc-T4 (Homo sapiens), sequence (chain, as listed by the source): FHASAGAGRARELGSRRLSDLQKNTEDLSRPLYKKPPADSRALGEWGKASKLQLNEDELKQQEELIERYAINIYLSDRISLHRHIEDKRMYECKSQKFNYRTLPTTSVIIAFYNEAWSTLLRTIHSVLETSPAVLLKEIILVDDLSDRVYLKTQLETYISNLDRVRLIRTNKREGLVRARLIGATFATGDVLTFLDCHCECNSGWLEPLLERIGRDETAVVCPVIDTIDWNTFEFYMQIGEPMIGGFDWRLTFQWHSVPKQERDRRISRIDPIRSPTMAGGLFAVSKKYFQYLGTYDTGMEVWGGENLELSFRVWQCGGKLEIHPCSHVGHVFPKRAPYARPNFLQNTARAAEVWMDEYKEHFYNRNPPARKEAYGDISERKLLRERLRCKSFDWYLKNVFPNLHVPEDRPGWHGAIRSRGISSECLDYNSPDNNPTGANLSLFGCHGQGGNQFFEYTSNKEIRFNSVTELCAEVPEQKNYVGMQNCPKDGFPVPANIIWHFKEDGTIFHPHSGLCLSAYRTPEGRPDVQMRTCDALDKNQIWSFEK
GalNAc-T2 (Homo sapiens), sequence (chain, as listed by the source): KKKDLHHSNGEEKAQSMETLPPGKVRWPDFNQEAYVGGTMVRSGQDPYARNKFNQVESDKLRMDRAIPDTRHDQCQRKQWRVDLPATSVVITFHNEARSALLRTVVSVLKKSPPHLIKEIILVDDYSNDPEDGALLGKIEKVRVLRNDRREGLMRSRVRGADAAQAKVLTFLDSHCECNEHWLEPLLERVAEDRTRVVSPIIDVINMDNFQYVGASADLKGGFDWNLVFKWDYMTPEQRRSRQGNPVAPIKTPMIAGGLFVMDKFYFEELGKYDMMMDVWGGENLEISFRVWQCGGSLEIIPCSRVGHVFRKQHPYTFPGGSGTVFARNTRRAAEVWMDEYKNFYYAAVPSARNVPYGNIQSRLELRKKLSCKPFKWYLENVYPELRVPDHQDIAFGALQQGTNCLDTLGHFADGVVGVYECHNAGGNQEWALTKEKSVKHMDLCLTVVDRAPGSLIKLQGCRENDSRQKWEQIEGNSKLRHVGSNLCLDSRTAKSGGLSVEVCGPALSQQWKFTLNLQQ

| Substance | Km [1] [µM] | Vmax [1] [nmol/min/µg] | Km [2] [µM] | Vmax [2] [nmol/min/µg] |
| --- | --- | --- | --- | --- |
| GalNAc-T2 (Homo sapiens) | 15 | 0.64 |  |  |
| GalNAc-T4 (Homo sapiens) |  |  | 480 | 0.25 |
